Results on one substance are retold here after patent US20250129140A1, “ANTI-HCMV ANTIBODIES AND ANTIGEN-BINDING FRAGMENTS THEREOF” (ICAHN SCHOOL OF MEDICINE AT MOUNT SINAI, priority 2021, published 2025).

The assay concerns the target MHC class I on ARPE-19 cells (Homo sapiens). Nature of the assay: flow cytometry on ARPE-19 cells infected with AD169R (GFP reporter), 6 dpi, antibody 2 µg/mL, anti-mouse AF647 secondary. Background: In flow cytometry, cells or beads pass a laser one at a time.

Turning to α-MHC-1 (W6/32) (antibody), the Q1, percent of cells GFP- and Alexa Fluor 647+ was determined as 86.9%; the Q2, percent of cells GFP+ and Alexa Fluor 647+ is 12.7%.
